These results are taken from patent US20060292157A1 (TRUSTEES OF COLUMBIA UNIVERSITY IN THE CITY OF NEW YORK, published 2006).

The target in the assay is T1, BiP/GRP78 (endogenous) (human (endogenous in human HeLa cells), UniProt P11021 19-654).
T1 construct: Immunoprecipitated from cell lysates with BiP/GRP78 antibodies; also called ER chaperone BiP/GRP78
Description: co-IP with BiP/GRP78 antibodies, blot with Flag antibodies; wild type against C/F mutants; HeLa and P69 cells. From the text: These mutants were used to examine whether disruption of these regions altered interaction with BiP/GRP78 in HeLa (FIG. 11E) and P69 cells. BiP/GRP78 was immunoprecipitated using BiP/GRP78 antibodies and the membrane was probed with Flag antibodies (FIG. 11E). The C/F helix mutants of MDA-7/1IL-24 and M4 lost their ability to bind to BiP/GRP78 (FIG. 11E).
Cells were infected with Ad.vec, Ad.M4 or Ad.mda-7 or transfected with various plasmid (Flag tagged MDA7 or M4 and Myc tagged BiP) constructs in a 100-mm dish and after 48 h cells were rinsed with ice-cold phosphate buffered saline (PBS). Cells were lysed in 1 ml of immunoprecipitation buffer containing 25 mM Tris-Cl pH8.0, 137 mM NaCl, 2.5 mM KCl, 1% Triton X-100 and protease inhibitor mix. Cells were scrapped from the plates, transferred into microfuge tubes and rotated at 4° C. for 30 minutes. Tubes were centrifuged for 10 min at 13,000 rpm and 10 μl of supernatant were incubated with 50% Protein A agarose and rotated at 4° C. for 1 h to eliminate non-specific interactions. Samples were centrifuged and mixed with anti BiP/Grp78 or 9E10 myc monoclonal antibodies (1:200) dilution and rotated overnight at 4° C. Immune-complexes were precipitated with 25 μl of 50% protein A agarose for 2 h. […]

T1 sequence (P11021 19-654 limits assumed): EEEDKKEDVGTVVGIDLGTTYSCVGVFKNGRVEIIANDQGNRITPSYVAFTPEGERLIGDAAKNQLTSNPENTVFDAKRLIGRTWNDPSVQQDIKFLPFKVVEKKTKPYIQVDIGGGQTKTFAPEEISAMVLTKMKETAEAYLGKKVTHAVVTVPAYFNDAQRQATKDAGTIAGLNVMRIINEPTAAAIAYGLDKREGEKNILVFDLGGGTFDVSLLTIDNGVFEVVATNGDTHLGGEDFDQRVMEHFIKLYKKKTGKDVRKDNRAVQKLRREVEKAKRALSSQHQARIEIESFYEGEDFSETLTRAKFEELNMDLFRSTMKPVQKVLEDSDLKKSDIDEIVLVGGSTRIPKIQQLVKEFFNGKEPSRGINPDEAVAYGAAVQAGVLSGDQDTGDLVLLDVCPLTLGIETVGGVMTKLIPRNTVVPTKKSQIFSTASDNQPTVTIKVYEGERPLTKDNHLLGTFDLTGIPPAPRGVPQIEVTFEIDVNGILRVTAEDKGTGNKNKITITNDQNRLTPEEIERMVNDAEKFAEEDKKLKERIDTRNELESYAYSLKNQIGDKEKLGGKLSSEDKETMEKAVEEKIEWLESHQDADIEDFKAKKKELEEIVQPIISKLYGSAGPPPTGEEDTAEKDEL

B1: Flag-tagged M4 (amino acids 104-206 of MDA-7/IL-24, pCMV3xFlag) (other)
chain: ESCYLVHTLLEFYLKTVFKNYHNRTVEVRTLKSFSTLANNFVLIVSQLQPSQENEMFSIRDSAHRRFLLFRRAFKQLDVEAALTKALGEVDILLTWMQKFYKL
notes: Transiently expressed in HeLa cells; also called Flag M4; not shown: three Flag tags at the N-terminus from vector pCMV3xFlag (Sigma)
On to B1, for which the binding result is “binds”.
